Data on one sequence can be found in patent US20260027179A1, “ANTI-SYNUCLEINOPATHY PEPTIDE AND METHODS TO TREAT NEURODEGENERATIVE DISEASES” (University of British Columbia, priority 2021, published 2026).

For experiment [1], the target named is T1, phosphorylated (pS129) α-synuclein (Homo sapiens, UniProt P37840, A53T).
T1 construct: tissue The Jackson Laboratory 004479; host or cells: coronal brain sections (substantia nigra, pons) of M83 mice injected with human α-synuclein PFFs
As to the kind of experiment: PFF mouse model of spreading synucleinopathy, pS129 α-synuclein immunostaining. The format is in vivo. To be noted: PFF-injected M83 mice, 40 mg/kg i.p. over 20 days, at three months, vs Tat-βsyn group. The procedure: M83 mice were injected intracerebrally (i.e.) into the right dorsal striatum with either 12.5 μg of α-synuclein pre-formed fibrils (PFFs) or PBS. Starting at 3 days prior to the PFF injection, mice were treated daily for 12 days with either Tat-βsyn or Tat-βsyn-degron peptide (40 mg/kg; i.p.) and once every other day for the subsequent 8 days (20 days in total, FIG. 5a). At the end of three months, coronal brain sections of the M83 mice were prepared and stained with antibodies against serine 129-phosphorylated α-synuclein (pS129syn), a marker of pathogenic synuclein aggregates, and Iba-1, a calcium-binding protein specifically expressed in macrophage and microglia as a marker of neuroinflammation.
PFFs were generated in-house based on the Volpicelli-Daley et al protocol. […] PFFs were characterized using a negative staining protocol and analyzed using an electron microscope. […] PFFs were visualized using a transmission electron microscope (FEI Tecnai 12 Bio Twin 120 kV TEM) coupled to a AMT XR80C CCD camera, and analyzed with ImageJ 1.5 and Matlab 2017b software. […]
Brains from M83 mice that received i.e. and i.p. injections were processed for immunohistochemistry. […] Coronal sections were analyzed using Fiji-ImageJ 1.5 software to detect the total area labeled with the peroxidase immunoreaction product. The results were analyzed using GraphPad Prism software.

Experiment [2] addresses T2, endogenous α-synuclein (Rattus norvegicus, UniProt P37377).
T2 construct: endogenous in cells; host or cells: primary rat cortical neurons (14 DIV) and primary rat ventral midbrain neurons (3 DIV)
As to the kind of experiment: α-synuclein level in MPP+-treated ventral midbrain cultures, immunoblot. The format is cell-based. To be noted: 25 μM, 48 hrs, MPP+ 20 μM. The procedure: Primary rat neuron cultures were prepared from embryos of pregnant Sprague-Dawley rats (E18). The experimental protocol was approved by the University of British Columbia Animal Care Committee. Briefly, the cortical tissue or ventral midbrain tissue was isolated into ice cold HBSS (Invitrogen, 14170-112) and then digested with 0.25% trypsin-EDTA at 37° C. for 30 min. After washing with warm DMEM (supplemented with 10% FBS) three times, neurons were suspended in neuron culture media and dissociated by trituration using varying sizes of pipettes. Neurons were then centrifuged, and the pellet was re-suspended in culture media, washed twice with culture media, and plated on the poly-D-lysine-coated plates. Neuron culture was maintained in the 37° C. incubator with 95% O2 and 5% CO2. The morning after culturing, 2/3 of the neuron culture media was replaced with fresh neuron culture media. Media was then replaced every 3-4 days. […]
Brain tissues or cultured cells were lysed on ice in the lysis buffer and then the solution was centrifuged at 14,000 rpm for 10 min at 4° C. Next, the supernatant was collected and protein concentrations were determined using a BCA protein assay kit (Thermo Scientific, 23227). […] The band density of each protein was quantified by the Bio-Rad Quantity One software and the relative optical density was analyzed relative to the loading control β-actin on the same membrane.
A general note: A western blot detects proteins with antibodies after separation by electrophoresis.

With “YGRKKRRQRRRRTKSGVYLVGRRRG (The sequence is synthesized (YGRKKRRQRRRRTKSGVYLVGRRRG)) [Tat-βsyn-degron]”, in experiment [1], the “pS129syn staining in pons” value was “significantly reduced” and the “pS129syn staining in substantia nigra pars compacta” value is reported as “significantly reduced”. In experiment [2], the “endogenous α-synuclein protein levels” value is “induced a robust reduction in endogenous α-synuclein protein levels”.
